Test results as given in patent US20070160576A1, “IL-17A/F heterologous polypeptides and therapeutic uses thereof” (Genentech, Inc., priority 2001, published 2007).
Entries after “also recorded” stand apart in the source; their conditions may differ.

What was measured:
[1] = molecular target: human IL-17 receptor (IL-17R, PRO1) (Homo sapiens, UniProt Q96F46); assay: Receptor/ligand interaction screening assay (immunoadhesin); format: binding
Method: In general, the assay is performed as follows. A PRO polypeptide of the present invention suspected of being a ligand for a receptor is expressed as a fusion protein containing the Fc domain of human IgG (an immunoadhesin). Receptor-ligand binding is detected by allowing interaction of the immunoadhesin polypeptide with cells (e.g. Cos cells) expressing candidate PRO polypeptide receptors and visualization of bound immunoadhesin with fluorescent reagents directed toward the Fc fusion domain and examination by microscope. Cells expressing candidate receptors are produced by transient transfection, in parallel, of defined subsets of a library of cDNA expression vectors encoding PRO polypeptides that may function as receptor molecules. Cells are then incubated for 1 hour in the presence of the PRO polypeptide immunoadhesin being tested for possible receptor binding. The cells are then washed and fixed with paraformaldehyde. The cells are then incubated with fluorescent conjugated antibody directed against the Fc portion of the PRO polypeptide immunoadhesin (e.g. FITC conjugated goat anti-human-Fc antibody). The cells are then washed again and examined by microscope. A positive interaction is judged by the presence of fluorescent labeling of cells transfected with cDNA encoding a particular PRO polypeptide receptor or pool of receptors and an absence of similar fluorescent labeling of similarly prepared cells that have been transfected with other cDNA or pools of cDNA. If a defined pool of cDNA expression vectors is judged to be positive for interaction with a PRO polypeptide immunoadhesin, the individual cDNA species that comprise the pool are tested individually (the pool is “broken down”) to determine the specific cDNA that encodes a receptor able to interact with the PRO polypeptide immunoadhesin.
In another embodiment of this assay, an epitope-tagged potential ligand PRO polypeptide (e.g., 8 histidine “His” tag) is allowed to interact with a panel of potential receptor PRO polypeptide molecules that have been expressed as fusions with the Fc domain of human IgG (immunoadhesins). Following a 1 hour co-incubation with the epitope tagged PRO polypeptide, the candidate receptors are each immunoprecipitated with protein A beads and the beads are washed. Potential ligand interaction is determined by Western blot analysis of the immunoprecipitated complexes with antibody directed towards the epitope tag. An interaction is judged to occur if a band of the anticipated molecular weight of the epitope tagged protein is observed in the Western blot analysis with a candidate receptor, but is not observed to occur with the other members of the panel of potential receptors.

[2] = molecular target: T1, IL-17R (Homo sapiens, UniProt Q96F46); assay: SPR competition for receptor binding to immobilized IL-17; settings: IL-17R 500 nM; IL-17F at 2 ┘M
T1 construct: the extracellular domains (ECDs) of either of the two receptors IL-17R (designated PRO1) and IL-17RH1 (PRO5801)
Method: The kinetics and affinity of IL-17, IL-17E (PRO10272), or IL-17F (PRO20110) binding to IL-17R or IL-17RH1 (PRO5801) were determined by SPR measurements on a Pharmacia BIAcore 1000 instrument (Phamacia Biosensor, Piscataway N.J.). IL-17 ligand or receptor was immobilized onto a flow cell of a CM5 sensor chip via random coupling to amino groups, N-hydroxysuccinimide chemistry, by using a protocol developed by the manufacturer. An immobilization level of about 500 resonance units (RU) was obtained for IL-17R, IL-17RH1, and IL-17F, whereas IL-17 and IL-17E immobilization levels were 1200 and 1500 RU, respectively. A strong signal was obtained for IL-17R binding to immobilized IL-17. […] After blocking unreacted sites with ethanolamine, binding measurements were performed using a flow rate of 25 ┘L/min. Sensorgrams-were obtained for a series of six, two-fold serially diluted protein solutions. The highest concentration used was 1000 or 500 nM protein and the solutions were prepared in the running buffer, PBS containing 0.05% Tween-20. […] Sensorgrams were evaluated according to a 1:1 binding model by non-linear regression analysis using software supplied by the manufacturer. […] The amount of bound receptor was determined from the resonance signal obtained after completion of the association phase. […]

[3] = molecular target: T2, IL-17RH1 (PRO5801) (Homo sapiens, UniProt Q9NRM6); assay: SPR (BIAcore) binding measurements
T2 construct: the extracellular domains (ECDs) of either of the two receptors IL-17R (designated PRO1) and IL-17RH1 (PRO5801)
T2 sequence (Q9NRM6 18-292 limits assumed): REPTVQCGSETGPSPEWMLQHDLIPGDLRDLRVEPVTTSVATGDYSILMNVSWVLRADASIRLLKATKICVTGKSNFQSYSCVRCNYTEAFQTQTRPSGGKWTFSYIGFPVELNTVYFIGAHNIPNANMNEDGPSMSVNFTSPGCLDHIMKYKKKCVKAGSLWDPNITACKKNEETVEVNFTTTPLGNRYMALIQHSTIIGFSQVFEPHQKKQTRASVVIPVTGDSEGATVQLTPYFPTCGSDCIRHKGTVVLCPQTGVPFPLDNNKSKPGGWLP
Method: (§1) The kinetics and affinity of IL-17, IL-17E (PRO10272), or IL-17F (PRO20110) binding to IL-17R or IL-17RH1 (PRO5801) were determined by SPR measurements on a Pharmacia BIAcore 1000 instrument (Phamacia Biosensor, Piscataway N.J.). IL-17 ligand or receptor was immobilized onto a flow cell of a CM5 sensor chip via random coupling to amino groups, N-hydroxysuccinimide chemistry, by using a protocol developed by the manufacturer. An immobilization level of about 500 resonance units (RU) was obtained for IL-17R, IL-17RH1, and IL-17F, whereas IL-17 and IL-17E immobilization levels were 1200 and 1500 RU, respectively. A strong signal was obtained for IL-17R binding to immobilized IL-17. […] After blocking unreacted sites with ethanolamine, binding measurements were performed using a flow rate of 25 ┘L/min. Sensorgrams-were obtained for a series of six, two-fold serially diluted protein solutions. The highest concentration used was 1000 or 500 nM protein and the solutions were prepared in the running buffer, PBS containing 0.05% Tween-20. The sensor chip surface was regenerated between binding cycles by injection of a 25 ┘L aliquot of 0.1 M acetic acid, 0.2 M NaCl, pH 3 to elute non-covalent bound protein. Sensorgrams were evaluated according to a 1:1 binding model by non-linear regression analysis using software supplied by the manufacturer. In separate experiments to measure competition between IL-17 variants for binding receptors, a fixed concentration of receptor was incubated with a varied concentration of IL-17 protein followed by injection of this mixture onto a flow cell having immobilized IL-17 protein. The amount of bound receptor was determined from the resonance signal obtained after completion of the association phase.

[4] = molecular target: T1, IL-17R; assay: SPR (BIAcore) binding measurements
Method: as §1

[5] = test system: TK-10 cells; assay: IL-8 and IL-6 production in TK-10 cells (ELISA of conditioned media); format: cell-based, human; settings: for IL-8 production: IL-8 ELISA
Method: Fractions were tested by incubation with TK-10 cells for 24 hours (0.033 microliters fraction/ml of cell culture media). Conditioned media was then collected and IL-8 and IL-6 concentration measurements were performed on each fraction by ELISA. […] Gels, blots, amino acid sequence and activity assays were run on this fraction (FIG. 3). Alternatively, fraction 31 and the remaining volume of fraction 32, from the HiLoad S Sepharose run were pooled and dialyzed against Buffer A for eight hours using a 10 kD cutoff membrane and passed through a 0.2 micron filter. […] Fractions 26-43 were assayed and protein concentrations were determined by amino acid analysis. Pure IL-17A/F was identified in fractions 31-33 as a single protein with apparent molecular mass of 30-35 kD. The concentrations of fractions 31, 32 and 33 were 0.258, 0.359 and 0.291 mg/ml respectively.
IL-17A/F, IL-17 and IL-17F were incubated with TK-10 cells at the indicated concentrations for 24 hours.
TK-10 conditioned media was collected and analyzed by IL-8 ELISA and IL-6 ELISA.

Substance	binding to human IL-17 receptor (IL-17R, PRO1) [1]	competition for binding of IL-17R to immobilized IL-17 [2]	SPR binding to IL-17RH1 (in words) [3]	SPR signal for binding to immobilized IL-17R ([4]; IL-17R immobilized)	SPR binding to IL-17R (in words) ([4]; IL-17R in solution, cytokine immobilized)	Koff × 10^4 ([4]; immobilized IL-17, ligand IL-17R, value is Koff × 10^4)	Kon × 10^−5 ([4]; immobilized IL-17, ligand IL-17R, value is Kon × 10^−5)	IL-8 production ([5]; TK-10 cells, 24 hours)	difference in activity (potency) from IL-17 and IL-17F ([5]; IL-8 induction in TK-10 cells, greater activity than IL-17F)	IL-6 production ([5]; TK-10 cells, 24 hours, IL-6 ELISA)	IL-8 production ([5]; TK-10 cells, 24 hours, listed as Fraction 38)
IL-17: human IL-17 cytokine, SEQ ID NO:3	binds to	efficiently block binding	no binding was observed	weak signal	strong signal; also recorded: modest binding affinity	6.7 s^−1	0.093 M^−1 s^−1	production of IL-8			
IL-17A/F: novel human cytokine, covalent heterodimer of one IL-17 chain and one IL-17F chain								robustly induced IL-8 production; also recorded: induce IL-8 production; also recorded: potent IL-8 inducing activity	roughly an order of magnitude	induced production of IL-6	robust activity
